This note sets out measurements from paper PMC4598023 (PLoS ONE, 2015).

The nature of data set [1]: Amylin aggregation by ThT fluorescence, up to 7 days in PBS pH 7.4. It is filed as physicochemical. The conditions noted are these: PBS pH 7.4, 25°C, followed up to 7 days. The procedure: In this case, at the indicated time 160 μL sample were mixed with 40 μL ThT 100 μM. In both cases the thioflavin T fluorescence was measured by setting excitation at 450 nm and emission at 482 nm. […] The aggregation curves were fitted using a 4 parameter logistic function and the t1/2, elongation rate and lag time were estimated as described elsewhere.
(§1) Scale bar = 200 nm. The raw data can be found in S2 File.

Data set [2] can be described thus: Morphologic analysis of aggregation products by transmission electron microscopy (TEM). The conditions noted are these: negative stain 2% uranyl acetate; products of the aggregation kinetics. It is filed as physicochemical.
Excerpt: Samples from aggregation kinetic assay were applied to 300 mesh, Formvar-carbon-coated Cu grids (Electron Microscopy Science, USA), followed by negative stain with 2% uranyl acetate, pH 4.8, for 30–60 s.
as §1

Data set [3] addresses T1, human receptor-activity modifying protein 3 Extracellular Topological Domain (RAMP3-ETD), fluorescein-labelled (Homo sapiens, UniProt O60896).
T1 construct: RAMP3-ETD; residues 28–117; UNIPROT identifier O60896; His tag (N); thrombin cleavage site (N); made in house; host or cells: E. coli BL21DE3pLys
T1 sequence (O60896 28-117): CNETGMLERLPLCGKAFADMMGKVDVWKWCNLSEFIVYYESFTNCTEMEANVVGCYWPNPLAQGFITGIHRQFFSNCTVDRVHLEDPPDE
As to the kind of experiment: Isothermal binding assay, fluorescence anisotropy, RAMP-3. The note with it: for Anisotropy: 50 nM labelled RAMP-3, PBS pH 7.4, 25°C, mean of five measurements. From the text: The human receptor-activity modifying protein 3 Extracellular Topological Domain (RAMP3-ETD; residues 28–117; UNIPROT identifier O60896; Sequence in S1 File) was obtained by heterologous production in E. coli and further purified from inclusion bodies. The synthetic DNA sequence encoding the RAMP3-ETD of RAMP3 was cloned into bacterial protein expression vector pET28b (Novagen/EMD Millipore) from the synthetic gene using NdeI and EcoRI. The sequence and identity of the gene in the pET28b-RAMP3 construct was confirmed with DNA sequencing. The gene synthesis, cloning and sequencing services were provided by GenScript Corporation (Piscataway, NJ, USA).
RAMP3 was produced and purified as described previously for the homologous protein RAMP2 [56]. The RAMP3-ETD was produced as a fusion protein containing an N-terminal histidine tag and a thrombin protease cleavage site, by heterologous expression in E. coli BL21DE3pLys (1 mM IPTG, 37°C, 3 h). […] The purified RAMP3-ETD was refolded by rapid dilution into cold buffer 50 mM sodium phosphate buffer (pH 8.3) containing 1 M arginine hydrochloride, 5 mM reduced glutathione, 1 mM oxidized glutathione, and 1 mM EDTA and left stand for 24 h at 4°C. After refolding, RAMP3-ETD was dialyzed, concentrated in AMICON (Millipore, Brazil), and stored in 20 mM sodium phosphate buffer and 500 mM NaCl, pH 7.0, in liquid nitrogen until use. Purity was over 95% as judged by SDS-PAGE, routine size-exclusion chomatography and MALDI-ToF-MS. The purified RAMP3 was quantified by absorbance at 280 nm, using 21,345 M^-1cm^−1 as extinction coefficient.
The proteins (CTR, RAMP and murine amylin) were labeled with fluorescein isothiocyanate (FITC; Sigma-Aldrich; 0.2 mM final concentration, from stock in DMSO at 5 mM freshly prepared) in 20 mM Na2HPO4, 300 mM NaCl, pH 7.0, for 60 min at 25°C protected from light. The reaction was quenched by adding an excess of Tris-HCl. The free fluorescein was removed by chromatography with a Sephadex G25 desalting column (GE Healthcare, Brazil). The labeling efficiency, final yield and protein quantification were calculated as described elsewhere. The labeling efficiency was below 1 mol FITC:1 mol protein for all labeling procedures. Labeled proteins were stored until use protected from light at -20°C for no longer than 3 months.
The fluorescence measurements were conducted in a Spectramax M5 (Molecular Devices) microplate reader, with excitation and emission set at 480 nm and 520 nm respectively, with cut-off filter 515 nm. The results represent the mean and the standard error of the mean (SEM) of five measurements. Binding data analysis was performed with SigmaPlot 12.5 (Systat Software, Inc., CA, USA).
Fig 4 Amylin self-assembly and interaction with co-receptors. […] Assays were conducted in PBS, pH 7.4, 25°C, in the presence of 50 nM FITC-labelled proteins (amylin, CTR–1 or RAMP–3). Ex 480 nm, Em 520 nm, filter 515 nm. The raw data can be found in S2 File.

Bridges are numbered along the chain shown (N, C = ends). Where no end group is shown, it is not given here.

Consider “PEGylated human amylin: human amylin monoconjugated at the N-terminal Lys1 region with 5 kDa methoxyl polyethylene glycol succinimidyl carbonate (mPEGsc5k) (KCNTATCATQRLANFLVHSSNNFGAILSSTNVGSNTY-NH2; disulfide 2-7; also: one mPEG 5 kDa (mPEGsc5k) on a Lys1 amino group)”, for which the “changes in ThT fluorescence up to 7 days” value in data set [1] is listed as “only minor changes in ThT fluorescence”. In addition, in data set [2], the “fibrils by TEM after aggregation assay” value is reported as “no fibrils were observed”. Further, the “binding to coreceptor RAMP3 (in words)” value in data set [3] (fluorescence anisotropy, PBS pH 7.4, 25°C, 50 nM FITC-labelled protein) is “PEGylation did not abolish the assembly”. In addition, the Anisotropy worked out at 0.0481 in data set [3] (ligand 0.0492 µM); 0.0421 in data set [3] (ligand 0.1229 µM); 0.0449 in data set [3] (ligand 0.3072 µM); 0.0486 in data set [3] (ligand 0.768 µM); 0.0614 in data set [3] (ligand 1.92 µM); 0.1188 in data set [3] (ligand 4.8 µM). Besides, the Anisotropy amounted to 0.2199 in data set [3] (ligand 12 µM) and 0.1286 in data set [3] (ligand 30 µM).
